{"source": "patent US20060058189A1", "biological_target": "PpFtsZ2-1-CFP fusion protein (Physcomitrella patens)", "assay": "FRET by acceptor photobleaching, confocal microscopy, cotransfected Physcomitrella protoplasts (FtsZ2-1-CFP donor, FtsZ1-1-YFP acceptor)"}
{"substance": "PpFtsZ1-1-YFP fusion protein", "values": [{"measurement": "FRET efficiency", "result": 36.5, "unit": "%"}]}
